What all share (test): cell-based or functional assay
Experiment [1] deals with EphB3(h) (human) (UniProt P54753).
Experiment [2] addresses Aurora-B(h) (human) (UniProt Q96GD4).
Experiment [3] deals with MSK2(h) (human) (UniProt O75676).
The target in experiment [4] is Tie2(h) (human) (UniProt Q02763).
In experiment [5] the target is FGFR4(h) (human) (UniProt P22455).
Experiment [6] deals with PKBα(h) (human) (UniProt P31749).
Experiment [7] addresses T1, CHK1(h) (human) (UniProt O14757).
T1 sequence (looked up): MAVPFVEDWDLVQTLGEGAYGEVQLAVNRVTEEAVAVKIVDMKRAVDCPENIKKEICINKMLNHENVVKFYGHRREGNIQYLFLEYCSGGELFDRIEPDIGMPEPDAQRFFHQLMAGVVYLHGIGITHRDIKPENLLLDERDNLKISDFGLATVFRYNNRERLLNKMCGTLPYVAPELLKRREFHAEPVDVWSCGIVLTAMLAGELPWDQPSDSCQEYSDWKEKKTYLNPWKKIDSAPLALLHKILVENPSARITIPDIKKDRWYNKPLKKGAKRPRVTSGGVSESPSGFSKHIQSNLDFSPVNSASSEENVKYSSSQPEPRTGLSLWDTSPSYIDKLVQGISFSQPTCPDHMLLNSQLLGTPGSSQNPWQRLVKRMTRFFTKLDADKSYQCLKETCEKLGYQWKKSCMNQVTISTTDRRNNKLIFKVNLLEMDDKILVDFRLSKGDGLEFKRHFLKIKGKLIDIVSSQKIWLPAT

Experiment [8] addresses GSK3α(h) (human) (UniProt P49840).
In experiment [9] the target is GRK6(h) (human) (UniProt P43250).
Experiment [10] has as its target Ron(h) (human) (UniProt Q04912).
Experiment [11] concerns the target T2, Flt1(h) (human) (UniProt P17948).
T2 sequence (looked up): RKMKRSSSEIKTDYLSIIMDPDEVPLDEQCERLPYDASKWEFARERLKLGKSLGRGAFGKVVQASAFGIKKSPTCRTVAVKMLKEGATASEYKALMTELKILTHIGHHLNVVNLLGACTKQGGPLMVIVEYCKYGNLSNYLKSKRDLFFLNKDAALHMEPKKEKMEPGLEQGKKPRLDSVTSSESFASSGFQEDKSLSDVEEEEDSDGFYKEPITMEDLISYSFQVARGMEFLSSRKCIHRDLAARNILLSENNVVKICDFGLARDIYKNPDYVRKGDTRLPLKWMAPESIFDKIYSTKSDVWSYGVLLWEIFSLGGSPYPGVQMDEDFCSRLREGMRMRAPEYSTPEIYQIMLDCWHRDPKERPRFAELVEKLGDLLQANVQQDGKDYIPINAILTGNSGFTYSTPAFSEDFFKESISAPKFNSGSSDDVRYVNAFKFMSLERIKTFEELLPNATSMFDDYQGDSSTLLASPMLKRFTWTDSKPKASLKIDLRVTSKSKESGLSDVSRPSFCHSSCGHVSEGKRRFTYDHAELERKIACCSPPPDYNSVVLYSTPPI

Experiment [12] deals with SGK(h) (human) (UniProt O00141).
SGK(h) (human), sequence (O00141 60-431 limits assumed): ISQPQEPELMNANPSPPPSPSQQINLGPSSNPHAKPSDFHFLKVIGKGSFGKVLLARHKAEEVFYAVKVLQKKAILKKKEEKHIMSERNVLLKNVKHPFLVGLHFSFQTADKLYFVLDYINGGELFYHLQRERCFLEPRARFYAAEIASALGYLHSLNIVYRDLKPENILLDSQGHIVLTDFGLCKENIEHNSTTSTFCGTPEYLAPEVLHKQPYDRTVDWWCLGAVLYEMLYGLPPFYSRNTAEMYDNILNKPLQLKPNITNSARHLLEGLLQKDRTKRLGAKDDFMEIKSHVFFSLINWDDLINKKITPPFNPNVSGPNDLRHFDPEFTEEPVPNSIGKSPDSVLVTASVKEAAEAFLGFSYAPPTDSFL
In experiment [13] the target is T3, DDR2(h) (human) (UniProt Q16832).
T3 sequence (looked up): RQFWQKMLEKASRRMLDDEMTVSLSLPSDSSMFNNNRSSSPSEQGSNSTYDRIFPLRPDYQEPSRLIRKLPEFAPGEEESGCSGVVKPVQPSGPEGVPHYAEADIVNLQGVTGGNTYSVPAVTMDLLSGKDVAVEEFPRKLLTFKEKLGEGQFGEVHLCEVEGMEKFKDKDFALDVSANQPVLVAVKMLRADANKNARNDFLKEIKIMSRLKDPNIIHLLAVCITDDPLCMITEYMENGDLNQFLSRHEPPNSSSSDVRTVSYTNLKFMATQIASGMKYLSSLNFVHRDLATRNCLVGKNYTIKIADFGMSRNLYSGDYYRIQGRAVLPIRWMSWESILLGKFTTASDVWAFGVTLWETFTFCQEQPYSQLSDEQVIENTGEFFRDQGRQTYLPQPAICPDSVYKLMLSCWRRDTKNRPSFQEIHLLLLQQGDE

The target in experiment [14] is Pim-2(h) (human) (UniProt Q9P1W9).
Experiment [15] deals with Pyk2(h) (human) (UniProt Q14289).
Experiment [16] deals with CHK2(I157T)(h) (human) (UniProt O96017).
CHK2(I157T)(h) (human), sequence (O96017 5-543 I157T limits assumed): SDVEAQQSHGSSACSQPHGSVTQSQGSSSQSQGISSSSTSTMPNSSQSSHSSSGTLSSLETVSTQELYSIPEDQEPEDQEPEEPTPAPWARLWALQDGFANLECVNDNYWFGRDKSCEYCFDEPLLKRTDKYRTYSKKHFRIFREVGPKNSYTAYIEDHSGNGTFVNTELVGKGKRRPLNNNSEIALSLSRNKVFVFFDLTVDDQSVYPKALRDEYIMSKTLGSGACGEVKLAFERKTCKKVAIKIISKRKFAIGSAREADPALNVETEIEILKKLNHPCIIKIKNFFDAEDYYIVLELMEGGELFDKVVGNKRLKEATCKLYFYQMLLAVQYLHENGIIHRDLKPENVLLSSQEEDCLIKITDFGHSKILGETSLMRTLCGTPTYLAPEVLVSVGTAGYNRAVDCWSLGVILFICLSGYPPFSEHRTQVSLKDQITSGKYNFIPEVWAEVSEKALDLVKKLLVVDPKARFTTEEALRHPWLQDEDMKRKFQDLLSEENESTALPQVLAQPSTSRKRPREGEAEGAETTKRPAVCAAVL
The target in experiment [17] is T4, SAPK3(h) (human) (UniProt P53778).
T4 sequence (looked up): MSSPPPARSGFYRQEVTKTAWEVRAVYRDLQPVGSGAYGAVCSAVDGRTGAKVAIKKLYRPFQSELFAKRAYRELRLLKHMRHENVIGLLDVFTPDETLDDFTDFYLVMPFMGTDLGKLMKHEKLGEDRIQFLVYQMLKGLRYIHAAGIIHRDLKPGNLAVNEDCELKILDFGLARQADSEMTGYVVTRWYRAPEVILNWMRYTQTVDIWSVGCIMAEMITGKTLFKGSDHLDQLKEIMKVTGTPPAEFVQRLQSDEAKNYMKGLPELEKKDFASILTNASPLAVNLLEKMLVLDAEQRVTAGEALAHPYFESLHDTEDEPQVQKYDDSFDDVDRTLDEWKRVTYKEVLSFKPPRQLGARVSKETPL

Experiment [18] deals with LIMK1(h) (human) (UniProt P53667).
Experiment [19] deals with T5, ALK4(h) (human) (UniProt P36896).
T5 sequence (looked up): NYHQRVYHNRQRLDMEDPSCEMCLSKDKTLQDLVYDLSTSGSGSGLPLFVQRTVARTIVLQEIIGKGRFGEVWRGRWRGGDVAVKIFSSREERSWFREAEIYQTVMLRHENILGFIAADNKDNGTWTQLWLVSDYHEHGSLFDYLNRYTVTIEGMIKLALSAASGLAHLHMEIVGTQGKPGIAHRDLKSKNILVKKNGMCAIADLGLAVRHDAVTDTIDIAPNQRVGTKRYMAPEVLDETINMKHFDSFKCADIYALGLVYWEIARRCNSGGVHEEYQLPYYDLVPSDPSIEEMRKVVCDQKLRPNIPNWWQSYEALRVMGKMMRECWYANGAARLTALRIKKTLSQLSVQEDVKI

Aurora-B(h) (human), sequence (Q96GD4 whole entry): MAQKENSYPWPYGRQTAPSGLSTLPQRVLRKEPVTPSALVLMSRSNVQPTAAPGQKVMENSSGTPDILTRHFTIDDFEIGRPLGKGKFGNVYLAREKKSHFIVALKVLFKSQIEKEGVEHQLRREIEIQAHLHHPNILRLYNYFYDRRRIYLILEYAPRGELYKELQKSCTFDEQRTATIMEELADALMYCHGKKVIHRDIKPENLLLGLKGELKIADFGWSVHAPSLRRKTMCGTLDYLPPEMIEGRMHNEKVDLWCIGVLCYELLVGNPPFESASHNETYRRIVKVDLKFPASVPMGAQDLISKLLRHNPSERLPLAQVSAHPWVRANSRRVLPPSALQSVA
Tie2(h) (human), sequence (Q02763 771-1124 limits assumed): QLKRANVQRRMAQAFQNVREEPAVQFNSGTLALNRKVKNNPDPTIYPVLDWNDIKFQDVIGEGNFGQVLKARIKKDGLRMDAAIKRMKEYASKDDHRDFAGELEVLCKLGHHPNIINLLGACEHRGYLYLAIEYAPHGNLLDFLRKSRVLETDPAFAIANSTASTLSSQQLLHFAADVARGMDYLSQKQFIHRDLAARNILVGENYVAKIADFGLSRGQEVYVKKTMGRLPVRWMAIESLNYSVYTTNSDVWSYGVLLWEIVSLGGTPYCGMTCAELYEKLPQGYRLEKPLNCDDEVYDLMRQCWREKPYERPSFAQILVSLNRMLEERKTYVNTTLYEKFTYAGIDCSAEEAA
FGFR4(h) (human), sequence (P22455 442-753 limits assumed): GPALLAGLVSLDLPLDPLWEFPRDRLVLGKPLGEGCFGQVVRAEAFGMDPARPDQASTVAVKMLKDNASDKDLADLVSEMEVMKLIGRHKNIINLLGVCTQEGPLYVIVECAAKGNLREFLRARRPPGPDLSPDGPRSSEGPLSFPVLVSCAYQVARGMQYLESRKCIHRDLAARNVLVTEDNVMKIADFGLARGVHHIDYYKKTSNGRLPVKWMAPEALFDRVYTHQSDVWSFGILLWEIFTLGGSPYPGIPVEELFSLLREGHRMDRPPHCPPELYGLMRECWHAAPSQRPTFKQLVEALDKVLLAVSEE
EphB3(h) (human), sequence (P54753 581-998 limits assumed): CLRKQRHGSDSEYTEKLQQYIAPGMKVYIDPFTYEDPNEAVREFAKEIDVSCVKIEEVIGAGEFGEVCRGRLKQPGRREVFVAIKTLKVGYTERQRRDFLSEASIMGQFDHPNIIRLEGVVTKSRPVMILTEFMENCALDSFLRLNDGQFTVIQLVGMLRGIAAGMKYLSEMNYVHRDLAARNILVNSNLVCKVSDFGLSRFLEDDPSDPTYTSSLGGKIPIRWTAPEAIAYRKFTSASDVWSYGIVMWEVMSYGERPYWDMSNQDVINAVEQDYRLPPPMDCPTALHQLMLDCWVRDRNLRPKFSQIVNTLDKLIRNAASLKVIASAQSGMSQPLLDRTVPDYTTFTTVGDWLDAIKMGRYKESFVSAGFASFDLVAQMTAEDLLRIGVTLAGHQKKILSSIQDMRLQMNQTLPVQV
PKBα(h) (human), sequence (P31749 whole entry): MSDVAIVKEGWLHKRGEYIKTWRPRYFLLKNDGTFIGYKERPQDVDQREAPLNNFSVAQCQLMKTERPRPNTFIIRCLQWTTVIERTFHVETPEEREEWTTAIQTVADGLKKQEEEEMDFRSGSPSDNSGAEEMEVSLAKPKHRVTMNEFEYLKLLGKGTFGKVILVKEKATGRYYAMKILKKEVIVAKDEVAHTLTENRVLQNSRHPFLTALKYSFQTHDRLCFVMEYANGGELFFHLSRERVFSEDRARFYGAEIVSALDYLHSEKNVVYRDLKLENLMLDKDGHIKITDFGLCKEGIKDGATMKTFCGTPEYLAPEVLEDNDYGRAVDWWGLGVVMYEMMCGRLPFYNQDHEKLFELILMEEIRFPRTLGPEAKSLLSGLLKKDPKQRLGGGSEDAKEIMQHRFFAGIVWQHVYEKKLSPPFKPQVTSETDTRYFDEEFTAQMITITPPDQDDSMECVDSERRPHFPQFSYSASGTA
Ron(h) (human), sequence (Q04912 983-1400 limits assumed): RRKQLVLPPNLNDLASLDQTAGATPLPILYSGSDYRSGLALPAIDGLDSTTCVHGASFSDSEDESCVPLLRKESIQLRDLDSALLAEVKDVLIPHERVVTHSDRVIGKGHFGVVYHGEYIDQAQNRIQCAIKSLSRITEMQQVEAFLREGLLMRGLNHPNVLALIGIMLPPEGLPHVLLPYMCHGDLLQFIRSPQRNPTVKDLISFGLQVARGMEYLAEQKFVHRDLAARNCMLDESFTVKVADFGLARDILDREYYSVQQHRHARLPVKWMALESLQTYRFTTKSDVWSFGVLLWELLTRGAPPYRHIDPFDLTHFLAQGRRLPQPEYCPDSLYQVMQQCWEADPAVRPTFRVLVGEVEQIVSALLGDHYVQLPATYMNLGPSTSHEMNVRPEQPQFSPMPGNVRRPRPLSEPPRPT

Regarding MMI-0400 (peptide), the % activity at 100 µM in experiment [1] came to 47%; in experiment [2] it was 150%; in [3], 52%; in [4], 21%; in experiment [5], 19%; in [6], 67%. Moreover, the % activity at 100 µM in experiment [7] stood at 87%; in experiment [8], 164%; in experiment [9], 141%; in experiment [10] it was 79%; in experiment [11] it was 48%; in experiment [12] it was 54%. For the same substance, the % activity at 100 µM came out at 95% in experiment [13]; 92% in [14]; 34% in experiment [15]; 41% in experiment [16]; 79% in experiment [17]; 92% in experiment [18]. In addition, in experiment [19], the % activity at 100 µM was determined as 130%.
As to MMI-0500 (peptide), the % activity at 100 µM in experiment [1] turned out to be 79%; in experiment [2], 5%; in experiment [3] it was 14%; in [4] it was 22%; in [5], 3%; in experiment [6], 30%. Moreover, the % activity at 100 µM in experiment [7] stood at 65%; in [8], 175%; in experiment [9], 174%; in experiment [10], 46%; in experiment [11] it was 27%; in experiment [12], 2%. In addition, the % activity at 100 µM is 79% in experiment [13]; 46% in [14]; 46% in experiment [15]; 3% in experiment [16]; 24% in experiment [17]; 87% in experiment [18]. For the same substance, the % activity at 100 µM in experiment [19] was found to be 81%.
For MMI-0300 (peptide), the % activity at 100 µM in experiment [1] was determined as 62%; in experiment [2] it was 128%; in experiment [3], 56%; in experiment [4], 26%; in [5] it was 28%; in experiment [6] it was 57%. The % activity at 100 µM in [7] is 91%; in experiment [8], 157%; in experiment [9], 147%; in experiment [10] it was 93%; in experiment [11], 69%; in experiment [12] it was 48%. For the same substance, the % activity at 100 µM in experiment [13] stood at 94%; in experiment [14], 76%; in experiment [15], 47%; in [16], 43%; in [17], 84%; in [18], 88%. In experiment [19], the % activity at 100 µM was 140%.

(Values after US20150064134A1.)
